According to patent US20250136699A1 (JIANGSU BIOJETAY BIOTECHNOLOGY, published 2025):
Substitutions are numbered along the chain they refer to.

B1: ZLP193 (antibody, V domains shown)
VH: EVQLQESGPDLVKPSQSLSLTCTVTGYSFTSGYSWHWIRQFPGNRLEWMGYIHDSGGTNYNPSLKSRISITRDTSKNQFFLQLNSVTTEDTATYYCAREENYRYFDVWGAGTTVTVSS
VL: DIQMMQSPAIMSASPGEKVTITCSASSSVSYMHWFQQKPGTSPKLWIYSTSNLASGVPARFSGSGSGTSYSLTISRMEAEDAATYYCQQRSSYPPTFGDGTRLEIK
notes: Full-length chimeric antibody: mouse variable domains with human IgG1 or IgG4 heavy constant domain and human kappa or lambda light constant domain; also called chimeric anti-FcRn antibody ZLP193
B2: ZLP44 (antibody, V domains shown)
VH: EVQLQQSGPELVKPGASVKVSCKASGYIFTSYNMYWMKQSHGKSLEWIGYIDPYNGGTRYNQKFKGKATLTVDKSSSTAYMHLNSLTSEDSAVYYCAVDGYNGAMDYWGQGTSVTVSS
VL: QIVLTQSPASLAVSLGQRATISCRASESVDSYGNSFMHWYQQKPGQPPKLLIYRASNLESGIPARFSGSGSRTDFTLTINPVEADDVATYYCQQSNEDPYTFGGGTKLEIK
notes: Full-length chimeric antibody; human kappa or lambda light constant domain
B3: ZLP64 (antibody, V domains shown)
VH: B2 VH with E1Q, V2I, Q5L, R59N
VL: B2 VL with Q1D, A12T, S31R, I62V, T89S, Y100L, G104A, I110L
notes: as for B2
B4: ZLP22 (antibody, V domains shown)
VH: EVKLVESGAELARPGASVKMSCKASGYTFTSYAMHWVKQRPGQGLEWIGYINPSSGYTNYNQKFKDKATLTADKSSSTAYMQLSSLTSEDSAVYYCARKGLRYAVDYWGQGTSVTVSS
VL: DIVMTQSPSSLSVSAGEKVTMSCKSSQSLLNSGNQKNYLAWYQQKPGQPPKLLIYGASTRESGVPDRFTGSGSGTDYTLTISSVQAEDLALYYCQQHYSTPYTFGGGTKLEIK
notes: as for B2
B5: ZLP17 (antibody, V domains shown)
VH: QIQLLQSGAELARPGASVKMSCKASGYTFTSYTMHWVKQRPGQGLEWIGYINPSSGYTNYNQKFKDKATLTADKSSSTAYMQLSSLTSEGSAVYYCARSGLRRVLDYWGQGTSVTVSS
VL: ENVLTQSPAILSASPGEKVTMTCSASSSVSYMYWYQQKPGSSPRLLIYDTSNLASGVPVRFSGSGSGTSYSLTISRMEAEDAATYYCQQWSSYPRTFGGGTKLEIK
notes: Full-length chimeric antibody with human IgG1 or IgG4 heavy constant and human kappa or lambda light constant domain
B6: ZLP1-3-2F (antibody, V domains shown)
VH: QVQLQESGPGLVKPSETLSLTCAVSGYSFTSGYSWHWIRQPPGKGLEWIGYIHDSGGTNYNPSLKSRVTISRDTSKNQFSLKLSSVTAADTAVYYCAREENYRYFDVWGQGTLVTVSS
VL: EIVLTQSPATLSLSPGERATLSCSASSSVSYMHWFQQKPGQSPRLLIYSTSNLASGIPARFSGSGSGTDFTLTISSLEPEDFAVYYCQQRSSYPPTFGQGTKVEIK
B7: ZLP1-3-2 (antibody, V domains shown)
VH: B6 VH
VL: B6 VL with L46W, F70Y
notes: also called humanized version of ZLP193
B8: ZLP42 (antibody, V domains shown)
VH: QVQLQQPGAELVKPGASVKLSCTASGFNIKDTYMYWVKQRPEQGLEWIGRIDPANGITKFDPKFQDKATVTADTFSNIAYLHLSSLTSEDTAVYYCTTTAVMATEAMDRWGQGTSVTVSS
VL: B2 VL
notes: Full-length chimeric antibody
B9: ZLP57 (antibody, V domains shown)
VH: QVQLKESGPDLVKPSQSLSLTCTVTGYSITSGYSWHWIRQFPGNKLEWMTYIHSSGSTNYNPSLKSRISITRDTSKNQFFLQLKSVTTEDTATYYCAREVYGNYYWYFDVWGAGTTVTVSS
VL: DIVMTQSPAIMSASLGEEITLTCSASSSVSYMHWYQQKSGTSPKLLIYSTSNLASGVPARFSGSGSGTSYSLTISRMEAEDAATYYCQQRSSYPYTFGGGTKLEIK
notes: as for B5
B10: ZLP198 (antibody, V domains shown)
VH: EVKLMESGPDLVKPSQSLSLTCTVTGYSITSGYSWHWIRHFPGKKLEWMGYIHNSGSTNYNPSLKSRISISRETSKNQFFLQLNSVTTEDTATYYCAREGYGGYWYFDVWGAGTSVTVSS
VL: B5 VL with E1D, N2I, L11M, R44K, L45P, L46W, D49G, W90R, R95Y
notes: as for B5

Target: T1, human FcRn (human FCGRT and B2M) on stably transfected MDCK cells (human, UniProt P55899 24-365; P61769 21-119)
Assay: cell-based or functional assay

T1 sequence (P55899 24-365, chain 1 of 2): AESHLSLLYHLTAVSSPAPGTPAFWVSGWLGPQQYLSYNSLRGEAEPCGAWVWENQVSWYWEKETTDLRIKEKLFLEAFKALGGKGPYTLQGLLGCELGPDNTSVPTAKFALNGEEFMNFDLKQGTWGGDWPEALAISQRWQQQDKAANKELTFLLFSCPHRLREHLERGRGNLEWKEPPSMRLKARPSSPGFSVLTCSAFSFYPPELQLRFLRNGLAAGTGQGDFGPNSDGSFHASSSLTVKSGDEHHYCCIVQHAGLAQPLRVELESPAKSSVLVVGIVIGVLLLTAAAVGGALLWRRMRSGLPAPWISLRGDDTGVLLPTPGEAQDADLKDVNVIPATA
T1 sequence (P61769 21-119, chain 2 of 2): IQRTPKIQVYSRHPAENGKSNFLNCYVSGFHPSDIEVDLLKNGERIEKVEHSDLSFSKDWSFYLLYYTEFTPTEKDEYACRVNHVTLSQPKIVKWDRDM

First: B1
Second: B2
The “IgG Recycle IC50” value of the first is 4-fold higher: 10.1 nM for the first, 2.5 nM for the second.

Going from B3 to B4, the “IgG Recycle IC50” value falls from 10.7 nM to 5.01 nM (2.1-fold).

B5 was tested, and the “IgG Recycle IC50” value was 3.24 nM.

Target: T1, human FcRn (human FCGRT and B2M) on …
Assay: cell-based or functional assay
Remark: another data set of the same source

First: B6
Second: B7
The “IgG Recycle IC50” value of the first is 2.1-fold higher: 8.36 nM for the first, 4.04 nM for the second.

Target: T2, Human recombinant FCGRT & B2M Heterodimer Protein (hFcRn) (human, UniProt P55899 24-297; P61769 21-119)
T2 construct: Bought protein; also called human FcRn
Assay: ELISA on coated hFcRn, IgG4 antibody titrated
Method: (§1) hFcRn binding of purified full-length chimeric antibodies: The hFcRn antigen binding ELISA was performed on the purified full-length chimeric antibodies (reformatted as IgG4). Briefly, plates were coated overnight at 4° C. with 1 μg/mL of hFcRn (cat #CT009-H08H) in PBS. After removing the coating solution, the wells were blocked by adding blocking buffer and incubated at room temperature for 1 hour. Plates were then washed 6 times with wash buffer. Serial dilutions of purified antibodies in PBS were added to individual wells followed by incubation at room temperature for 1 hour. Plates were washed 6 times with wash buffer. […] Plates were incubated at 37° C. for 1 hour, washed 6 times with wash buffer, and developed for 5-10 minutes with 50 L/well of TMB substrate, then quenched with 2M H₂SO₄. […] The ELISA results (OD450) were analyzed, and the binding curves were generated by Graphpad PRISM.

T2 sequence (P55899 24-297 limits assumed, chain 1 of 2): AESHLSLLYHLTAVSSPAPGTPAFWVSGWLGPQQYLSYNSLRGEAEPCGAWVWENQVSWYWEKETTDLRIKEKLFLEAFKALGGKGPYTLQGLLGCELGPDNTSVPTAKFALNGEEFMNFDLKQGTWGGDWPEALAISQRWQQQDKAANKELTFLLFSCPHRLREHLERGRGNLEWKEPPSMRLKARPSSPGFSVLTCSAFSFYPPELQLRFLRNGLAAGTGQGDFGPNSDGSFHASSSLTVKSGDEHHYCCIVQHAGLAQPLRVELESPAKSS
T2 sequence (P61769 21-119 limits assumed, chain 2 of 2): as the sequence (P61769 21-119, chain 2 of 2) above

Compared with B6, B7 is 2.2-fold lower in EC50: 6.63 nM for the first, 2.95 nM for the second. The second is the more potent here.

Target: T3, Cynomolgus monkey FcRn-alpha (cynomolgus monkey, UniProt Q8SPV9 24-297, limits assumed)
T3 construct: The printed entry looks like the full-length precursor (signal peptide, transmembrane and cytoplasmic parts); also called cynoFcRn; not shown: His tag and Avi tag
Assay: ELISA on coated cynoFcRn, IgG4 antibody titrated

T3 sequence (Q8SPV9 24-297 limits assumed): as the sequence (P55899 24-297 limits assumed, chain 1 of 2) above, with N39D, E44Q, G99S, S189G, S190N, L217M, S269T counted along it

Compared with B6, B7 is 1.5-fold higher in EC50: 2.06 nM for the first, 3.12 nM for the second.

Target: T4, human FCGRT (human, UniProt P55899 24-297, biotinylated (Avi tag) in the blocking assays)
T4 construct: Alpha chain alone, expressed in Expi293 cells with His and Avi tags; also called FCGRT of human FcRn protein; biotinylated human FCGRT; not shown: His tag and Avi tag
Assay: ELISA on coated human FCGRT, IgG4 antibody titrated

T4 sequence (P55899 24-297 limits assumed): as the sequence (P55899 24-297 limits assumed, chain 1 of 2) above

B6 and B7 are within 1.5-fold of each other in EC50: 1.02 nM for the first, 1.5 nM for the second.

Target: T5, human B2M (human, UniProt P61769 21-119, limits assumed)
T5 construct: also called beta-2-microglobulin; not shown: His tag and Avi tag
Assay: ELISA: human B2M coated, antibody titrated, OD450

T5 sequence (P61769 21-119 limits assumed): as the sequence (P61769 21-119, chain 2 of 2) above

B1: no binding (tested: about 700 nM (Log[Ab] about 2.8)).
B2: no binding (tested: about 700 nM (Log[Ab] about 2.8)).
B8: no binding (tested: about 700 nM (Log[Ab] about 2.8)).
B3: no binding (tested: about 700 nM (Log[Ab] about 2.8)).
B9: no binding (tested: about 700 nM (Log[Ab] about 2.8)).
B4: no binding (tested: about 700 nM (Log[Ab] about 2.8)).
B5: no binding (tested: about 700 nM (Log[Ab] about 2.8)).
B10: no binding (tested: about 700 nM (Log[Ab] about 2.8)).

Target: T5, human B2M
Assay: ELISA: human B2M coated, antibody titrated, OD450
Remark: another data set of the same source
Method: (§2) Measurement of the binding specificity of anti-FcRn antibodies to FCGRT and B2M by EILSA: Briefly, human FCGRT or B2M was coated on a 96-well plate at 4° C. overnight, after removing the coating solution, a blocking buffer containing 1% BSA was added into the plates followed by incubation at room temperature for 1 hour to block unspecific binding. Plates were then washed with wash buffer, and serial dilutions of anti-FcRn antibodies were added to the wells and incubated at room temperature for 1 hour. […] The wells were washed before adding 100 μL/well of TMB and incubated for 5-10 minutes at 37° C. 2M H₂SO₄ was used to stop the reaction. […] The ELISA results (OD450) were analyzed, and the binding curves were generated by Graphpad PRISM.

B6: no binding (tested: about 700 nM (Log[Ab] about 2.8)).
B7: no binding (tested: about 700 nM (Log[Ab] about 2.8)).

Target: T2, Human recombinant FCGRT & B2M …
Assay: SPR, Biacore T200, antibody (IgG4) on CM5 chip, hFcRn in solution, pH 6.0
Method: The anti-FcRn antibodies were stabilized on sensor chip CM5. The affinities for hFcRn of antibodies at various concentrations were measured. […] Using the SPR technology, the association and dissociation rates were measured, and binding affinity was determined.

For B6, the Kd was 0.609 nM.

Target: T2, Human recombinant FCGRT & B2M …
Assay: ELISA, hFcRn coated at 1 ug/mL, IgG4 antibody titrated, anti-human IgG Fab-HRP
Method: as §1

Compared with B1, B2 is 1.5-fold higher in EC50: 0.439 nM for the first, 0.673 nM for the second. The first is the more potent here.

First: B8
Second: B3
The EC50 of the first is 4.6-fold higher: 0.981 nM for the first, 0.212 nM for the second. The second is the more potent here.

With B4 the EC50 was 2.39 nM.

Target: T6, Rattus norvegicus FcRn-alpha (rat, UniProt P13599 23-298)
T6 construct: Alpha chain alone; also called rFcRn; rat FcRn; not shown: His tag and Avi tag
T6 sequence: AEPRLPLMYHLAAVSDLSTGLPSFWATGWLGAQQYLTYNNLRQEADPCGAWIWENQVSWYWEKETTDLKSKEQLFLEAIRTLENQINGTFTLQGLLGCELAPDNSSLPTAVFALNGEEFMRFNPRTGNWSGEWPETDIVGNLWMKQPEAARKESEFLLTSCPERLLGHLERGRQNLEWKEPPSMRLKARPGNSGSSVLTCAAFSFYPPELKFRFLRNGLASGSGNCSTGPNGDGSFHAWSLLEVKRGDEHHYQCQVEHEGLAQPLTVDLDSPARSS
Assay: ELISA: rFcRn coated, antibody titrated, goat anti-human IgG Fab-HRP, OD450

B1: no binding (tested: about 700 nM (Log[Ab] about 2.8)).
B2: no binding (tested: about 700 nM (Log[Ab] about 2.8)).
B8: no binding (tested: about 700 nM (Log[Ab] about 2.8)).
B3: no binding (tested: about 700 nM (Log[Ab] about 2.8)).
B4: no binding (tested: about 700 nM (Log[Ab] about 2.8)).

Target: T7, musculus FcRn-alpha (mouse, UniProt Q61559 22-297, limits assumed)
T7 construct: Alpha chain alone; also called mFcRn; mouse FcRn; not shown: His tag and Avi tag
T7 sequence: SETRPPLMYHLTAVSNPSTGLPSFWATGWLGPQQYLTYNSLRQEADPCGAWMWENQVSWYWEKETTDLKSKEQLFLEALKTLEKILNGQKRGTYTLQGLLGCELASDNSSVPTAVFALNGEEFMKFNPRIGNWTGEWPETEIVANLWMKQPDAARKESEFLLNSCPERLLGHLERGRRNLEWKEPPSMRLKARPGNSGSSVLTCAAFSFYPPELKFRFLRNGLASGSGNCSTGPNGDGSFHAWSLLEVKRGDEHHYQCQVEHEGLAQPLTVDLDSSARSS
Assay: ELISA: mFcRn coated, antibody titrated, goat anti-human IgG Fab-HRP, OD450

Compared with “Human IgG (Jackson ImmunoResearch, cat #009-000-003) (antibody)”, B1 is 3.3-fold lower in EC50 (read off the curve): 30 nM for the first, roughly 9 nM for the second.

Compared with B4, B5 is 1.5-fold higher in EC50 (read off the curve): roughly 20 nM for the first, roughly 30 nM for the second.

B10 was tested, and the “EC50 (read off the curve)” value was roughly 10 nM.

Target: T4, human FCGRT
Assay: competition ELISA: human IgG coated, biotinylated human FCGRT plus antibody, SA-HRP
Method: (§3) After removing the coating solution, the wells were blocked with a blocking buffer containing 1% BSA at room temperature for 1 hour. Plates were then washed with wash buffer. […] After incubation, 100 μL of SA-HRP (1:20,000) was added to each well and incubated for 1 hour at 37° C. The wells were washed before adding 100 μL/well of TMB and incubated for 5-10 minutes at 37° C. 2M H₂SO₄ was used to stop the reaction. […] The ELISA results (OD450) were analyzed, and the binding curves were generated by PRISM.

B1 and B2 are within 1.5-fold of each other in IC50: 8.7 nM for the first, 12.3 nM for the second.

B8 and B3 are within 1.5-fold of each other in IC50: 10.9 nM for the first, 12.5 nM for the second.

With B9 the IC50 was 8.88 nM.

Target: T4, human FCGRT
Assay: as above
Remark: another data set of the same source
Method: as §3

B6 and B7 are within 1.5-fold of each other in IC50: 5.77 nM for the first, 6.16 nM for the second.

Target: T3, Cynomolgus monkey FcRn-alpha
Assay: ELISA: cynoFcRn coated, antibody titrated, goat anti-human IgG Fab-HRP, OD450
Method: as §1
Analysis of cross-reactivity to FcRn from different species: To examine whether the anti-FcRn antibodies bind to FcRn from different species, antigen binding ELISA assays were performed as described above except that cynoFcRn, mFcRn, or rFcRn was used in the assay instead of hFcRn.

First: B1
Second: B2
The “EC50 (read off the curve)” value of the first is 3-fold higher: roughly 0.3 nM for the first, roughly 0.1 nM for the second.

First: B3
Second: B4
The “EC50 (read off the curve)” value of the first is 10-fold lower: roughly 0.08 nM for the first, roughly 0.8 nM for the second.

B5 and B10 are within 1.5-fold of each other in “EC50 (read off the curve)” value: roughly 7 nM for the first, roughly 6 nM for the second.

Target: T4, human FCGRT
Assay: ELISA: human FCGRT coated, antibody titrated, goat anti-human IgG Fab-HRP, OD450
Method: as §2

Compared with B1, B4 is 7-fold higher in “EC50 (read off the curve)” value: roughly 1 nM for the first, roughly 7 nM for the second.

B5 and B10 are the same in “EC50 (read off the curve)” value: roughly 20 nM for the first, roughly 20 nM for the second.

Target: T4, human FCGRT
Assay: as above
Remark: another data set of the same source
Method: as §2

First: B2
Second: B8
The “EC50 (read off the curve)” value of the first is 2-fold lower: roughly 0.1 nM for the first, roughly 0.2 nM for the second.

For B3, the “EC50 (read off the curve)” value was roughly 0.3 nM.

Target: T4, human FCGRT
Assay: blocking ELISA: human IgG coated, biotinylated human FCGRT plus titrated antibody, SA-HRP, OD450; blocked ligand: human IgG
Method: as §3

Going from B4 to B5, the “IC50 (read off the curve)” value falls from roughly 30 nM to roughly 20 nM (1.5-fold).
